Earlier results on 12 molecules are cited in patent US20250326839A1, “TREATMENT OF DISEASES RELATED TO COLONY-STIMULATING FACTOR 1 RECEPTOR DYSFUNCTION USING TREM2 AGONISTS” (Vigil Neuroscience, Inc., priority 2020, published 2025).

The target of the data set is T1, TREM2 (Homo sapiens, UniProt Q9NZC2).
T1 sequence (Q9NZC2 19-230): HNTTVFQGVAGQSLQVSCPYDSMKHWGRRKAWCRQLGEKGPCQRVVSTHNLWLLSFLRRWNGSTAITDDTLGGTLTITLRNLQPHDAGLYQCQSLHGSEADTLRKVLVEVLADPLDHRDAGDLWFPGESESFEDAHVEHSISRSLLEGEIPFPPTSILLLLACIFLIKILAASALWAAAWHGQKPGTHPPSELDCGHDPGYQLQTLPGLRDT
The settings on record: cited from earlier work; for Binding Signal (fold over 6E7 parental antibody) 1st screen 110 nM or 10 nM: 10 nM Ab concentration (values not marked *).

B1: V28: 6E7 variant: VH T30Q, I50T, Y103F; VL N56S, F94L (antibody, V domains shown)
VH: EVQLVQSGAEVKKPGESLKISCKGSGYSFQSYWIAWVRQMPGKGLEWMGTIYPGDSDTRYSPSFQGQVTISADKSISTAYLQWSSLKASDTAMYFCARQRTFFYDSSDYFDYWGQGTLVTVSS
VL: DIQMTQSPSSVSASVGDRVTITCRASQGISSWLAWYQQKPGKAPKLLIYAASSLQSGVPSRFSGSGSGTDFTLTISSLQPEDFATYFCQQADSLPRTFGQGTKLEIK
B1: the “Binding Signal (fold over 6E7 parental antibody) 1st screen 110 nM or 10 nM” value is on record as 3.08 fold over 6E7 parental antibod, the “Binding Signal (fold over 6E7 parental antibody) 2nd screen 2 nM” value is recorded as 2.63 fold over 6E7 parental antibod and the “Binding Signal (fold over 6E7 parental antibody) 2nd screen 10 nM” value is given as 3.61 fold over 6E7 parental antibod.

B2: V38: 6E7 variant: VH T30G, T58V; VL L54R, F94H (antibody, V domains shown)
VH: EVQLVQSGAEVKKPGESLKISCKGSGYSFGSYWIAWVRQMPGKGLEWMGIIYPGDSDVRYSPSFQGQVTISADKSISTAYLQWSSLKASDTAMYFCARQRTFYYDSSDYFDYWGQGTLVTVSS
VL: DIQMTQSPSSVSASVGDRVTITCRASQGISSWLAWYQQKPGKAPKLLIYAASSRQNGVPSRFSGSGSGTDFTLTISSLQPEDFATYFCQQADSHPRTFGQGTKLEIK
In the case of B2, the “Binding Signal (fold over 6E7 parental antibody) 1st screen 110 nM or 10 nM” value was 4.34 fold over 6E7 parental antibod, the “Binding Signal (fold over 6E7 parental antibody) 2nd screen 2 nM” value is listed as 3.44 fold over 6E7 parental antibod and the “Binding Signal (fold over 6E7 parental antibody) 2nd screen 10 nM” value is 4.36 fold over 6E7 parental antibod.

B3: V49: 6E7 variant: VH T30N, I50T, Y60L, Q99S; VL L54R, F94Y (antibody, V domains shown)
VH: EVQLVQSGAEVKKPGESLKISCKGSGYSFNSYWIAWVRQMPGKGLEWMGTIYPGDSDTRLSPSFQGQVTISADKSISTAYLQWSSLKASDTAMYFCARSRTFYYDSSDYFDYWGQGTLVTVSS
VL: DIQMTQSPSSVSASVGDRVTITCRASQGISSWLAWYQQKPGKAPKLLIYAASSRQNGVPSRFSGSGSGTDFTLTISSLQPEDFATYFCQQADSYPRTFGQGTKLEIK
As to B3, the “Binding Signal (fold over 6E7 parental antibody) 1st screen 110 nM or 10 nM” value was 6.51 fold over 6E7 parental antibod, the “Binding Signal (fold over 6E7 parental antibody) 2nd screen 2 nM” value is 5.02 fold over 6E7 parental antibod and the “Binding Signal (fold over 6E7 parental antibody) 2nd screen 10 nM” value is 6.58 fold over 6E7 parental antibod.

B4: V60: 6E7 variant: VH S28H, T58V, F110S; VL N56R, Q89G (antibody, V domains shown)
VH: EVQLVQSGAEVKKPGESLKISCKGSGYHFTSYWIAWVRQMPGKGLEWMGIIYPGDSDVRYSPSFQGQVTISADKSISTAYLQWSSLKASDTAMYFCARQRTFYYDSSDYSDYWGQGTLVTVSS
VL: DIQMTQSPSSVSASVGDRVTITCRASQGISSWLAWYQQKPGKAPKLLIYAASSLQRGVPSRFSGSGSGTDFTLTISSLQPEDFATYFCGQADSFPRTFGQGTKLEIK
As for B4, the “Binding Signal (fold over 6E7 parental antibody) 1st screen 110 nM or 10 nM” value is given as 3.26 fold over 6E7 parental antibod, the “Binding Signal (fold over 6E7 parental antibody) 2nd screen 2 nM” value is 3.35 fold over 6E7 parental antibod and the “Binding Signal (fold over 6E7 parental antibody) 2nd screen 10 nM” value is 3.63 fold over 6E7 parental antibod.

B5: V36: 6E7 variant: VH I34L, Q99S; VL L54R, F94Y (antibody, V domains shown)
VH: EVQLVQSGAEVKKPGESLKISCKGSGYSFTSYWLAWVRQMPGKGLEWMGIIYPGDSDTRYSPSFQGQVTISADKSISTAYLQWSSLKASDTAMYFCARSRTFYYDSSDYFDYWGQGTLVTVSS
VL: DIQMTQSPSSVSASVGDRVTITCRASQGISSWLAWYQQKPGKAPKLLIYAASSRQNGVPSRFSGSGSGTDFTLTISSLQPEDFATYFCQQADSYPRTFGQGTKLEIK
B5: the “Binding Signal (fold over 6E7 parental antibody) 1st screen 110 nM or 10 nM” value is 3.38 fold over 6E7 parental antibod, the “Binding Signal (fold over 6E7 parental antibody) 2nd screen 2 nM” value was 4.00 fold over 6E7 parental antibod and the “Binding Signal (fold over 6E7 parental antibody) 2nd screen 10 nM” value is given as 3.44 fold over 6E7 parental antibod.

B6: V40: 6E7 variant: VH T30G, T58V, F110S; VL N56L, S93R (antibody, V domains shown)
VH: EVQLVQSGAEVKKPGESLKISCKGSGYSFGSYWIAWVRQMPGKGLEWMGIIYPGDSDVRYSPSFQGQVTISADKSISTAYLQWSSLKASDTAMYFCARQRTFYYDSSDYSDYWGQGTLVTVSS
VL: DIQMTQSPSSVSASVGDRVTITCRASQGISSWLAWYQQKPGKAPKLLIYAASSLQLGVPSRFSGSGSGTDFTLTISSLQPEDFATYFCQQADRFPRTFGQGTKLEIK
Turning to B6, the “Binding Signal (fold over 6E7 parental antibody) 1st screen 110 nM or 10 nM” value is given as 4.48 fold over 6E7 parental antibod, the “Binding Signal (fold over 6E7 parental antibody) 2nd screen 2 nM” value is given as 3.41 fold over 6E7 parental antibod and the “Binding Signal (fold over 6E7 parental antibody) 2nd screen 10 nM” value is 4.16 fold over 6E7 parental antibod.

B7: V48: 6E7 variant: VH T30G, T58V, Q99M; VL N56T, F94L (antibody, V domains shown)
VH: EVQLVQSGAEVKKPGESLKISCKGSGYSFGSYWIAWVRQMPGKGLEWMGIIYPGDSDVRYSPSFQGQVTISADKSISTAYLQWSSLKASDTAMYFCARMRTFYYDSSDYFDYWGQGTLVTVSS
VL: DIQMTQSPSSVSASVGDRVTITCRASQGISSWLAWYQQKPGKAPKLLIYAASSLQTGVPSRFSGSGSGTDFTLTISSLQPEDFATYFCQQADSLPRTFGQGTKLEIK
For the molecule B7, the “Binding Signal (fold over 6E7 parental antibody) 1st screen 110 nM or 10 nM” value was 2.42 fold over 6E7 parental antibod, the “Binding Signal (fold over 6E7 parental antibody) 2nd screen 2 nM” value is given as 2.30 fold over 6E7 parental antibod and the “Binding Signal (fold over 6E7 parental antibody) 2nd screen 10 nM” value is on record as 2.54 fold over 6E7 parental antibod.

B8: V51: 6E7 variant: VH T58V, Q99G, Y112N; VL L54R (antibody, V domains shown)
VH: EVQLVQSGAEVKKPGESLKISCKGSGYSFTSYWIAWVRQMPGKGLEWMGIIYPGDSDVRYSPSFQGQVTISADKSISTAYLQWSSLKASDTAMYFCARGRTFYYDSSDYFDNWGQGTLVTVSS
VL: DIQMTQSPSSVSASVGDRVTITCRASQGISSWLAWYQQKPGKAPKLLIYAASSRQNGVPSRFSGSGSGTDFTLTISSLQPEDFATYFCQQADSFPRTFGQGTKLEIK
With B8, the “Binding Signal (fold over 6E7 parental antibody) 1st screen 110 nM or 10 nM” value was 2.81 fold over 6E7 parental antibod, the “Binding Signal (fold over 6E7 parental antibody) 2nd screen 2 nM” value is 1.83 fold over 6E7 parental antibod and the “Binding Signal (fold over 6E7 parental antibody) 2nd screen 10 nM” value is reported as 3.18 fold over 6E7 parental antibod.

B9: V39: 6E7 variant: VH T30G, S61N, Q99G; VL Q55V, F94S (antibody, V domains shown)
VH: EVQLVQSGAEVKKPGESLKISCKGSGYSFGSYWIAWVRQMPGKGLEWMGIIYPGDSDTRYNPSFQGQVTISADKSISTAYLQWSSLKASDTAMYFCARGRTFYYDSSDYFDYWGQGTLVTVSS
VL: DIQMTQSPSSVSASVGDRVTITCRASQGISSWLAWYQQKPGKAPKLLIYAASSLVNGVPSRFSGSGSGTDFTLTISSLQPEDFATYFCQQADSSPRTFGQGTKLEIK
With B9, the “Binding Signal (fold over 6E7 parental antibody) 1st screen 110 nM or 10 nM” value is recorded as 6.15 fold over 6E7 parental antibod, the “Binding Signal (fold over 6E7 parental antibody) 2nd screen 2 nM” value is listed as 5.11 fold over 6E7 parental antibod and the “Binding Signal (fold over 6E7 parental antibody) 2nd screen 10 nM” value is reported as 5.81 fold over 6E7 parental antibod.

B10: V50: 6E7 variant: VH T30G, I50V, F110L; VL L54R, F94L (antibody, V domains shown)
VH: EVQLVQSGAEVKKPGESLKISCKGSGYSFGSYWIAWVRQMPGKGLEWMGVIYPGDSDTRYSPSFQGQVTISADKSISTAYLQWSSLKASDTAMYFCARQRTFYYDSSDYLDYWGQGTLVTVSS
VL: DIQMTQSPSSVSASVGDRVTITCRASQGISSWLAWYQQKPGKAPKLLIYAASSRQNGVPSRFSGSGSGTDFTLTISSLQPEDFATYFCQQADSLPRTFGQGTKLEIK
For the molecule B10, the “Binding Signal (fold over 6E7 parental antibody) 1st screen 110 nM or 10 nM” value is given as 4.10 fold over 6E7 parental antibod, the “Binding Signal (fold over 6E7 parental antibody) 2nd screen 2 nM” value is 3.39 fold over 6E7 parental antibod and the “Binding Signal (fold over 6E7 parental antibody) 2nd screen 10 nM” value was 4.16 fold over 6E7 parental antibod.

B11: V52: 6E7 variant: VH T30E, Q99G; VL N56R, S93R (antibody, V domains shown)
VH: EVQLVQSGAEVKKPGESLKISCKGSGYSFESYWIAWVRQMPGKGLEWMGIIYPGDSDTRYSPSFQGQVTISADKSISTAYLQWSSLKASDTAMYFCARGRTFYYDSSDYFDYWGQGTLVTVSS
VL: DIQMTQSPSSVSASVGDRVTITCRASQGISSWLAWYQQKPGKAPKLLIYAASSLQRGVPSRFSGSGSGTDFTLTISSLQPEDFATYFCQQADRFPRTFGQGTKLEIK
B11: the “Binding Signal (fold over 6E7 parental antibody) 1st screen 110 nM or 10 nM” value was 3.00 fold over 6E7 parental antibod, the “Binding Signal (fold over 6E7 parental antibody) 2nd screen 2 nM” value is 1.78 fold over 6E7 parental antibod and the “Binding Signal (fold over 6E7 parental antibody) 2nd screen 10 nM” value was 3.09 fold over 6E7 parental antibod.

B12: V37: 6E7 variant: VH F29H, Q65A, Q99S; VL N56W, F94Y (antibody, V domains shown)
VH: EVQLVQSGAEVKKPGESLKISCKGSGYSHTSYWIAWVRQMPGKGLEWMGIIYPGDSDTRYSPSFAGQVTISADKSISTAYLQWSSLKASDTAMYFCARSRTFYYDSSDYFDYWGQGTLVTVSS
VL: DIQMTQSPSSVSASVGDRVTITCRASQGISSWLAWYQQKPGKAPKLLIYAASSLQWGVPSRFSGSGSGTDFTLTISSLQPEDFATYFCQQADSYPRTFGQGTKLEIK
As to B12, the “Binding Signal (fold over 6E7 parental antibody) 1st screen 110 nM or 10 nM” value is on record as 3.46 fold over 6E7 parental antibod, the “Binding Signal (fold over 6E7 parental antibody) 2nd screen 2 nM” value was 3.69 fold over 6E7 parental antibod and the “Binding Signal (fold over 6E7 parental antibody) 2nd screen 10 nM” value was 3.49 fold over 6E7 parental antibod.
